The results in this text go back to patent US20070212355A1 (priority 2005, published 2007).

The subject of assay [1] is CD-1 mice. The assay is described as follows: Myeloperoxidase histochemistry of intestinal muscularis, post-operative inflammatory ileus. The conditions noted are these: 2 mg/kg one hour before surgery; tissue 48 hr after operation; FIG. 6, 7. The assay is classed as in vivo. As for the experimental part: Myeloperoxidase histochemistry was performed on tissues harvested from the mid-small bowel of the mice 48 hr after the operation.
Briefly, segments of mid-small bowel were collected from the centrifuge tubes described in Example 12. Whole mounts of the muscle layer were prepared by pinning the tissue flat in a Sylgard® lined Petri dish and stretching the tissue to 2 times its length and 1.5 times its width. The mucosa was removed by fine dissection. The muscularis whole mounts were then fixed with 100% ethanol for 1 hr, washed 3 times with PBS, and incubated for 20 min in PBS containing 0.1% hydrogen peroxide and 1 mg/ml Hanker-Yates reagent. Following a second wash with PBS, the whole mounts were mounted on glass slides, cover-slipped, and viewed on an optical microscope. Myeloperoxidase containing leukocytes were counted in 6 to 8 adjacent 200× optical fields of view and the mean cell counts were calculated and recorded.

Assay [2] relates to CD-1 mice. The assay is described as follows: Gastrointestinal transit in post-operative inflammatory ileus model. It is filed as in vivo. The conditions noted are these: 2 mg/kg one hour before surgery; transit 48 hr after operation, 45 minutes; FIG. 5. As for the experimental part: On the day of study, upper gastrointestinal transit was measured using the FITC-dextran method. This method provides both, a measure of gastrointestinal transit and a readout of the pattern of distribution of the test meal along the gastrointestinal tract. Mice were fed a test meal of […] of FITC-dextran solution (5 mg/ml of 70,000 molecular weight dextran conjugated to fluorescein-isothiocyanate in 0.5% methylcellulose/deionized water) administered intragastrically by an 18 gauge curved feeding tube. Following oral administration of the FITC-dextran test meal, mice were returned to their home cages. It was shown that a 30 min test period was the optimum duration for detecting accelerated transit, while a 45 min test period was optimum for detecting delayed transit. Following the appropriate test period, mice were sacrificed by carbon dioxide exposure. The entire gastrointestinal tract from the lower esophageal sphincter to the terminal colon was removed. […] Aliquots of the cleared supernatant were read in duplicate on a 96-well fluorescence plate reader to quantify the magnitude of the fluorescent signal in each segment of bowel. […] The GC is calculated in the lower panel for statistical comparison. […]
All mice received an oral test meal of FITC-dextran 48 hr after the operation. Gastrointestinal transit was determined 45 minutes after oral feeding. […]

B1: SEQ ID NO: 80: human A2G-GLP2 peptide in murine IgG2a scaffold (protein)
chain: HGDGSFSDEMNTILDNLAARDFINWLIQTKITDGSGGGSGTTVTVSAEPRGPTIKPCPPCKCPAPNAAGGPSVFIFPPKIKDVLMISLSPIVTCVVVDVSEDDPDVQISWFVNNVEVHTAQTQTHREDYNSTLRVVSALPIQHQDWMSGKEFKCKVNNKDLPAPIERTISKPKGSVRAPQVYVLPPPEEEMTKKQVTLTCMVTDFMPEDIYVEWTNNGKTELNYKNTEPVLDSDGSYFMYSKLRVEKKNWVERNSYSCSVVHEGLHNHHTTKSFSRTPGK
modifications: Human A2G-GLP2 peptide in murine IgG2a scaffold
Consider B1, for which the “number of MPO-positive leukocytes infiltrating small intestinal muscle layer” value in the assay on CD-1 mice [1] is “significantly reduced the number of infiltrating cells”. The “effect on surgically induced delay in gastrointestinal transit” value in the assay with CD-1 mice [2] is on record as “significant improvement in transit”.
